6 molecules from patent US20140178405A1 can be followed below.

A value given as a limit tells only on which side of the number the result lay.

What all share (assay): cell-based or functional assay
Experiment [1] concerns the target native VP6 of bovine rotavirus C486 (SbI; P[1]G6), in the virus (bovine rotavirus strain C486).
The target of experiment [2] is native VP6 of bovine rotavirus IND (SbI; P[5]G6), in the virus (bovine rotavirus strain IND).
The target of experiment [3] is native VP6 of equine rotavirus H2 (Sb no I, no II; P[12]G3), in the virus (equine rotavirus strain H2).
For experiment [4], the target named is native VP6 of human rotavirus Wa (SbII; P[8]G1), in the virus (human rotavirus strain Wa).
Chain of native VP6 of human rotavirus Wa (SbII; P[8]G1), in the virus (human rotavirus strain Wa) (P03530 whole entry): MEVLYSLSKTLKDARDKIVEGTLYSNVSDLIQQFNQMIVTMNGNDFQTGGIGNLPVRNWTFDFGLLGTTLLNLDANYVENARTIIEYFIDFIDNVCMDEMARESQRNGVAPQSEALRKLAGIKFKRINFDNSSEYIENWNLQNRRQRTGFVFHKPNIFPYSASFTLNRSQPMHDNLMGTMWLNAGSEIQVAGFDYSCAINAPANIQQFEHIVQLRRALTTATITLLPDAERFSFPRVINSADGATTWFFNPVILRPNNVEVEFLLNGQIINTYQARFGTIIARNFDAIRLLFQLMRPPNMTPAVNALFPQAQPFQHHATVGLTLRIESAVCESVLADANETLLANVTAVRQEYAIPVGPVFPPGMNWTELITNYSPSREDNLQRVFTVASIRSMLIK

Chain of native VP6 of equine rotavirus H2 (Sb no I, no II; P[12]G3), in the virus (equine rotavirus strain H2) (P16488 whole entry): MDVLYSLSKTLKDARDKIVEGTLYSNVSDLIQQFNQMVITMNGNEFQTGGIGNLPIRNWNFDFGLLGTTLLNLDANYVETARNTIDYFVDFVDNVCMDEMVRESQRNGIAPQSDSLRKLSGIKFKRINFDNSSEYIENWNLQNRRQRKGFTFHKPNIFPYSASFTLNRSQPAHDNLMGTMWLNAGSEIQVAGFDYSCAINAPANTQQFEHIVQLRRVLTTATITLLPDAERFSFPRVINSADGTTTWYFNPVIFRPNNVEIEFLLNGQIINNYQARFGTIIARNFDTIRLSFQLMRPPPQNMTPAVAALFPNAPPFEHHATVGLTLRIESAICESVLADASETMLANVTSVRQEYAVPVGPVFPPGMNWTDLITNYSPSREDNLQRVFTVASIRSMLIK

Consider “non-related VHH, directed against a cellular protein”, for which the VN antibody titre (inverse of the highest VHH dilution that reduces >80% of the FFU per 100 FFU), VHH at 0.4 mg/ml (titre (reciprocal dilution)) in experiment [1], in experiment [2], in experiment [3] and in experiment [4] was below 8 each time.

B1: VHH 3B2 anti VP6 (VHH)
VHH: DVQLQASGGGLAQAGDSLTLSCAASGRTFSGYVVGWFRQAPGAEREFVGAIRWSEDSTWYGDSMKGRILISRNNIKNTVNLQMFNLKPEDTAVYVCAAGAGDIVTTETSYNYWGRGTQVTVSS
Regarding B1, the VN antibody titre (inverse of the highest VHH dilution that reduces >80% of the FFU per 100 FFU), VHH at 2 mg/ml (titre (reciprocal dilution)) in experiment [1] was determined as 1024; in experiment [2], 1024; in experiment [3] it was 512; in experiment [4], 8192.

B2: VHH 2KA4 anti VP6 (VHH)
VHH: DVQLQASGGGLVQAGDSLRLSCVQSGPGRYGVGWFRQAPGKEREFVAAVSGSGGSKYYGDSVQGRFTISKDDAKNTVYLQMNNLKPEDTAVYYCAVRRTYSGSNLWHRSDEYDSWGPGTQVTVSS
As to B2, the VN antibody titre (inverse of the highest VHH dilution that reduces >80% of the FFU per 100 FFU), VHH at 2 mg/ml (titre (reciprocal dilution)) in experiment [1], in experiment [2], in experiment [3] and in experiment [4] was below 8 each time.

B3: VHH 2KD1 anti VP6 (VHH)
VHH: DVQLQASGGGFVQPGDSLSLSCAASGGTFSSYSIGWFRQGPGKEREFVATISSSDSPWYGEPAKGRFTVARVNAKNTAYLHLNRLKPEDTATYYCAAGSVQHMANENEYVYWGQGTQVTVSS
As for B3, the VN antibody titre (inverse of the highest VHH dilution that reduces >80% of the FFU per 100 FFU), VHH at 2 mg/ml (titre (reciprocal dilution)) in experiment [1] was found to be 2048; in experiment [2], 2048; in experiment [3] it was 512; in experiment [4] it was 8192.

B4: VHH 3A6 anti VP6 (VHH)
VHH: EVQLQASGGGFVQPGGSLSLSCAVSGRSFGDDVMGWFRQAPGKEREFVSAIRFRSNSPFYGDPGKGRFTIARDSAKDTVYLHMYRLRPDDTAVYYCAVGDGALVNRASDYTYWGQGTQVTVSS
As for B4, the VN antibody titre (inverse of the highest VHH dilution that reduces >80% of the FFU per 100 FFU), VHH at 2 mg/ml (titre (reciprocal dilution)) came to 1024 in experiment [1], 1024 in experiment [2], 128 in experiment [3] and 2048 in experiment [4].

B5: bivalent VHH biv2KA4 (bispecific antibody)
chain: MADVQLQASGGGLVQAGDSLRLSCVQSGPGRYGVGWFRQAPGKEREFVAAVSGSGGSKYYGDSVQGRFTISKDDAKNTVYLQMNNLKPEDTAVYYCAVRRTYSGSNLWHRSDEYDSWGPGTQVTVSSSGPSTPPRPSPSTPPSDVQLQASGGGLVQAGDSLRLSCVQSGPGRYGVGWFRQAPGKEREFVAAVSGSGGSKYYGDSVQGRFTISKDDAKNTVYLQMNNLKPEDTAVYYCAVRRTYSGSNLWHRSDEYDSWGPGTQVTVSSGRHHHHHH
Take B5: the VN antibody titre (inverse of the highest VHH dilution that reduces >80% of the FFU per 100 FFU), VHH at 0.5 mg/ml (titre (reciprocal dilution)) is below 8 in experiment [1], below 8 in experiment [2], below 8 in experiment [3] and 32 in experiment [4].
